Changes are numbered by the printed parent chain. Names may count otherwise. No end group written: not given here. TMR = tetramethyl rhodamine dye
B1: TMR-E2F1^TD, peptide of the E2F1 transactivation domain (peptide)
peptide: {TMR}-GEGIRDLFDCDFGDLTPLD
notes: also called E2F^TD; source: synthetic peptide, bought: GenScript
B2: TMR-E7^LxCxE, LxCxE peptide of the E7 oncoprotein from HPV (peptide)
peptide: DLYCYEQLN
modifications: also: TMR label, position not given here
notes: source: synthetic peptide, bought: GenScript

Key:
Experiment in all cases: fluorescence polarisation; 25 °C after warming to 37 °C (7 min ramp, 2 min at 37 °C), 1 min on ice and 3 min at 25 °C; unlabeled Rb^P against 1.5 nM TMR-E2F1^TD or 7.5 nM TMR-E7^LxCxE; 25 mM Tris pH 8.0, 200 mM NaCl, 1 mM DTT, 0.1% Tween-20; apparent Kd
Settings in all cases: both partners purified
[1] = biological target: T1, retinoblastoma protein pocket domain (Rb^P), wild type (human, UniProt P06400 380-788)
T1 construct: also called WT Rb^P; WT
T1 sequence (looked up): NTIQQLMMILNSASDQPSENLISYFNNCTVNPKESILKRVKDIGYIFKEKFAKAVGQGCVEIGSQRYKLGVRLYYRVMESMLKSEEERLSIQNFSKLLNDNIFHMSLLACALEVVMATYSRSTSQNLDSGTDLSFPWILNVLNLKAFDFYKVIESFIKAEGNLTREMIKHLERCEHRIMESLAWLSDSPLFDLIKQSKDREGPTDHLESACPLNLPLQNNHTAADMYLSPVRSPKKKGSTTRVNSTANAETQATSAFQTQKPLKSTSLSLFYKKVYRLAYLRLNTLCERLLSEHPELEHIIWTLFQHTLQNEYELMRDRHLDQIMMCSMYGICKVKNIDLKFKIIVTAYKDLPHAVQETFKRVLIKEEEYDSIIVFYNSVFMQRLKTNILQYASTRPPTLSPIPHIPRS

[2] = biological target: T2, Rb^P E554K (human, UniProt P06400 380-788, E554K)
T2 construct: also called variant 28
T2 sequence (looked up): T1 sequence (looked up) with E175K

[3] = biological target: T3, Rb^P I703F (human, UniProt P06400 380-788, I703F)
T3 construct: also called variant 64
T3 sequence (looked up): T1 sequence (looked up) with I324F

[4] = biological target: T4, Rb^P M704V (human, UniProt P06400 380-788, M704V)
T4 construct: also called variant 66
T4 sequence (looked up): T1 sequence (looked up) with M325V

[5] = biological target: T5, Rb^P S751Y (human, UniProt P06400 380-788, S751Y)
T5 construct: also called variant 72
T5 sequence (looked up): T1 sequence (looked up) with S372Y

| Binder | Kd [1] [nM] | Kd [2] [nM] | Kd [3] [nM] | Kd [4] [nM] | Kd [5] [nM] |
| --- | --- | --- | --- | --- | --- |
| B1 | 17 | 1740 | 94 | 46 | 28 |
| B2 | 7 | 24 | 53 | 14 | 119 |

Source: paper PMC11931385, “Structural and functional analysis of cancer-associated missense variants in the retinoblastoma protein pocket domain” (The Journal of Biological Chemistry, 2025)
